Legend:
[1] = molecular target: T1, Recombinant human BAFF trimer (Boehringer Ingelheim Pharmaceuticals, Inc.) (human, UniProt Q9Y275 134-285, limits assumed); assay: cell-based or functional assay
[2] = molecular target: membrane-bound human BAFF on fixed CHO-K1 cells (human, UniProt Q9Y275 1-285); assay: cell-based or functional assay
[3] = molecular target: Recombinant cynomolgus BAFF trimer (Boehringer Ingelheim Pharmaceuticals, Inc.) (cynomolgus, UniProt A0A2K5V2X4 134-285); assay: cell-based or functional assay
[4] = molecular target: T1, Recombinant human BAFF trimer …; assay: cell-based or functional assay; remark: listed apart in the source
human BAFF [5] = molecular target: T2, human BAFF (human, UniProt Q9Y275 134-285, limits assumed); assay: cell-based or functional assay
[6] = molecular target: Recombinant human BAFF 60mer (Boehringer Ingelheim Pharmaceuticals, Inc.) (human, UniProt Q9Y275 134-285, limits assumed); assay: cell-based or functional assay
Recombinant human IL-23 [7] = molecular target: T3, Recombinant human IL-23 (human, UniProt P29460 23-328); assay: BLI (Octet RED96, streptavidin tips), compound incubated 48 h at 37 C in whole blood vs kinetic buffer
T3 construct: also called hu IL23
T3 sequence 1: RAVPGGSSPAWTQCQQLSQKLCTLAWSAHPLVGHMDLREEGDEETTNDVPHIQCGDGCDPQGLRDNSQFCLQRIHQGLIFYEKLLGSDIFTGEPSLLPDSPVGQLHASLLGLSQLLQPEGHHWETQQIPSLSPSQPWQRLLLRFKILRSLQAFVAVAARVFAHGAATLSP
T3 sequence 2: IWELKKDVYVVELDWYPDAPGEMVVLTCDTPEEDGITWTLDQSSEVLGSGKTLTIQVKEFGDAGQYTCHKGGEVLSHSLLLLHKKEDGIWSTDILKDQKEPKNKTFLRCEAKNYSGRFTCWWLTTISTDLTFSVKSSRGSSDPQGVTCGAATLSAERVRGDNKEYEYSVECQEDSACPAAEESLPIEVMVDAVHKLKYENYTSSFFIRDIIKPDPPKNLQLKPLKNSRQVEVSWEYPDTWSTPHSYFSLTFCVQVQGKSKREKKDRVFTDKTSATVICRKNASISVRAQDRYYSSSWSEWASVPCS
Protocol: (§1) A whole blood interference assay was developed on an Octet RED96 to detect the effects of non-specific binding or off-target binding for compounds in the presence of whole blood (WB). The compound solutions in whole blood and 1× kinetic running buffer (1×kb) were incubated at a temperature of 37° C. for 48 hours. Kinetic measurements for the incubated compound samples were performed with an Octet RED96 equipped with streptavidin (SA) biosensor tips (ForteBio, Menlo Park, Calif.) at 27° C. The ratio of the on-rates/binding signals in buffer and whole blood were reported. A ratio <2 was considered to show no interference.

human BAFF [8] = molecular target: T2, human BAFF; assay: as above
Protocol: as §1

Recombinant human IL-23 [9] = molecular target: T3, Recombinant human IL-23; assay: cell-based or functional assay
Recombinant human IL-23 [10] = molecular target: T3, Recombinant human IL-23; assay: cell-based or functional assay; remark: listed apart in the source
cynomolgus IL-23 [11] = molecular target: T4, cynomolgus IL-23 (cynomolgus, UniProt H6WS56 20-189); assay: cell-based or functional assay
cynomolgus IL-23 [12] = molecular target: T4, cynomolgus IL-23; assay: SPR (ProteOn XPR36), compound captured on goat anti-human IgG Fc, antigen injected
Protocol: (§2) SPR experiments were performed on a ProteOn XPR36 instrument (Bio Rad). A GLM chip was preconditioned with sequential injections of 60 sec of 0.5% SDS, 50 mM NaOH, and 100 mM HCl at a flow rate of 30 μl/min both vertical and horizontal directions.
(§3) The preconditioned GLM chip was then activated by an injection of EDC (76.7 mg/ml) and sulfo-NHS (21.7 mg/ml) mixture with ratio of 1:1 in 6 horizontal channels. Goat-anti-human IgG (GAHA) Fc gamma (Invitrogen) at a concentration of 30 μg/ml in 10 mM, pH 5.0 sodium acetate buffer was immobilized to 8,000 resonance units on the activated GLM chip in 6 horizontal channels. The chip was finally deactivated with 1 M ethanolamine HCl in 6 horizontal channels. The prepared GAHA chip was rotated to vertical direction to capture test compounds, over 5 vertical channels and the last channel was used as a column reference. The captured chip was then rotated again to the horizontal direction for binding. […] The dissociation was allowed for 2 hour. The GAHA surface was regenerated using short pulse injection (18 seconds) of 0.85% phosphoric acid (Bio Rad) at a flow rate of 100 μl/min both horizontal and vertical directions after 10 min association and 2 hr dissociation. The regenerated GAHA was ready for another binding cycle.

cynomolgus BAFF = molecular target: T5, cynomolgus BAFF (cynomolgus, UniProt A0A2K5V2X4 134-285); assay: as above
T5 construct: construct not described
Protocol: as §2, §3

[13] = molecular target: T6, Linked human IL-23 (Boehringer Ingelheim Pharmaceuticals, Inc.) (human, UniProt P29460 23-328); assay: as above
T6 sequence 1: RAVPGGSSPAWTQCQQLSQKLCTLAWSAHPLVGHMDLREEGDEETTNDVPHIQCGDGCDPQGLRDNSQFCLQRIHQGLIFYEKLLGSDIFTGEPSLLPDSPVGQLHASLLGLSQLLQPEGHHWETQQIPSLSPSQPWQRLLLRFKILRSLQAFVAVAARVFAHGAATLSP
T6 sequence 2: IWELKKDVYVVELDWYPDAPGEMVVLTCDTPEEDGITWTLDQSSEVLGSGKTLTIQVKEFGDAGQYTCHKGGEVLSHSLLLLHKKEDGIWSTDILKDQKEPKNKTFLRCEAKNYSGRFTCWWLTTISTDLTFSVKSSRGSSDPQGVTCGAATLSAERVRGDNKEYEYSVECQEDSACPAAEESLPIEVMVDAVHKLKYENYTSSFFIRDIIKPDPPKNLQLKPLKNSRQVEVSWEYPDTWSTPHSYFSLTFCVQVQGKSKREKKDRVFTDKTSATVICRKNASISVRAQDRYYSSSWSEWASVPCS
Protocol: as §2, §3

human BAFF [14] = molecular target: T2, human BAFF; assay: as above
Protocol: as §2, §3

Binder	IC50, NFkB luciferase reporter, human BAFFR-CHO cells [1] [nM]	IC90, NFkB luciferase reporter, human BAFFR-CHO cells [1] [nM]	IC50, NFkB luciferase reporter, human BAFFR-CHO cells stimulated with fixed human BAFF CHO-K1 cells [2] [nM]	IC90, NFkB luciferase reporter, human BAFFR-CHO cells stimulated with fixed human BAFF CHO-K1 cells [2] [nM]	IC50 Geomean, NFkB luciferase reporter, human BAFFR-CHO cells [3] [nM]	IC90 Geomean, NFkB luciferase reporter, human BAFFR-CHO cells [3] [nM]	IC50 Geomean, NFkB luciferase reporter, human TACI-CHO cells [4] [nM]	IC90 Geomean, NFkB luciferase reporter, human TACI-CHO cells [4] [nM]	IC50, 3H-thymidine incorporation, primary human B cells stimulated with anti-IgM and hBAFF (human BAFF [5]) [nM]	IC50, NFkB luciferase reporter, human BAFFR-CHO cells [6] [nM]	IC90, NFkB luciferase reporter, human BAFFR-CHO cells [6] [nM]	Ratio of binding signal in WB/kinetic buffer (Recombinant human IL-23 [7])	Ratio of binding signal in WB/kinetic buffer (human BAFF [8])	IC50, STAT3-luciferase reporter in DB lymphoblast B cells (Recombinant human IL-23 [9]) [nM]	IC90, STAT3-luciferase reporter in DB lymphoblast B cells (Recombinant human IL-23 [9]) [nM]	IC50, IL-23-induced mouse IL-17 release from mouse splenocytes (Recombinant human IL-23 [10]) [nM]	IC90, IL-23-induced mouse IL-17 release from mouse splenocytes (Recombinant human IL-23 [10]) [nM]	IC50, IL-23-induced mouse IL-17 release from mouse splenocytes (cynomolgus IL-23 [11]) [nM]	IC90, IL-23-induced mouse IL-17 release from mouse splenocytes (cynomolgus IL-23 [11]) [nM]	Kd (cynomolgus IL-23 [12]) [nM]	further results
Control Antibody 3 (anti-BAFF monoclonal antibody) (BAFF (3)) (antibody, V domains shown) VH: QVQLQQWGAGLLKPSETLSLTCAVYGGSFSGYYWSWIRQPPGKGLEWIGEINHSGSTNYNPSLKSRVTISVDTSKNQFSLKLSSVTAADTAVYYCARGYYDILTGYYYYFDYWGQGTLVTVSS VL: EIVLTQSPATLSLSPGERATLSCRASQSVSRYLAWYQQKPGQAPRLLIYDASNRATGIPARFSGSGSGTDSTLTISSLEPEDFAVYYCQQRSNWPRTFGQGTKVEIK	0.07	0.417	0.25	2.92	0.257	0.588	0.241	0.618	0.0873	0.015	0.038	–	–	–	–	–	–	–	–	–	–
Compound B (bispecific antibody, human IgG4 S228P, kappa, Large chain: IL23A(1) VL - BAFF(7) VH - LGGGSG - IgG4-Pro-YTE constant domain; small chain: BAFF(7) VL - IL23A(1) VH - LGGGSG - CL; Tetravalent format) chain 1: DIQMTQSPSSLSASVGDRVTITCKASRDVAIAVAWYQQKPGKVPKLLIYWASTRHTGVPSRFSGSGSRTDFTLTISSLQPEDVADYFCHQYSSYPFTFGSGTKLEIKGGGSGGGGQVQLVQSGAEVKKPGASVKVSCKASGYSFSTFFIHWVRQAPGQGLEWIGRIDPNSGATKYNEKFESRVTMTRDTSISTAYMELSRLRSDDTAVYYCARGEDLLIRTDALDYWGQGTSVTVSSLGGGSGASTKGPSVFPLAPCSRSTSESTAALGCLVKDYFPEPVTVSWNSGALTSGVHTFPAVLQSSGLYSLSSVVTVPSSSLGTKTYTCNVDHKPSNTKVDKRVESKYGPPCPPCPAPEFLGGPSVFLFPPKPKDTLYITREPEVTCVVVDVSQEDPEVQFNWYVDGVEVHNAKTKPREEQFNSTYRVVSVLTVLHQDWLNGKEYKCKVSNKGLPSSIEKTISKAKGQPREPQVYTLPPSQEEMTKNQVSLTCLVKGFYPSDIAVEWESNGQPENNYKTTPPVLDSDGSFFLYSRLTVDKSRWQEGNVFSCSVMHEALHNHYTQKSLSLSLG chain 2: DIQMTQSPSSLSASVGDRVSITCKASQNAGIDVAWFQQKPGKAPKLLIYSKSNRYTGVPSRFSGSGSGTDFTLTISSLQPEDFATYYCLQYRSYPRTFGQGTKLEIKGGGSGGGGQVQLVQSGAEVKKPGSSVKVSCKASGYTFTDQTIHWMRQAPGQGLEWIGYIYPRDDSPKYNENFKGKVTITADKSTSTAYMELSSLRSEDTAVYYCAIPDRSGYAWFIYWGQGTLVTVSSLGGGSGRTVAAPSVFIFPPSDEQLKSGTASVVCLLNNFYPREAKVQWKVDNALQSGNSQESVTEQDSKDSTYSLSSTLTLSKADYEKHKVYACEVTHQGLSSPVTKSFNRGEC	0.039	0.256	0.125	1.14	0.132	0.295	0.159	0.51	0.0337	0.006	0.017	1.5	1.2	0.161	1.1	0.202	1.36	0.2	1.48	< 0.015	Kd (cynomolgus BAFF): < 0.015 nM; Kd [13]: < 0.015 nM; Kd (human BAFF [14]): < 0.015 nM
Compound D (bispecific antibody, human IgG4 S228P, kappa, Large chain: IL23A(1) VL - BAFF(6) VH - LGGGSG - IgG4-Pro-YTE; small chain: BAFF(6) VL - IL23A(1) VH - LGGGSG - CL; Tetravalent format) chain 1: DIQMTQSPSSLSASVGDRVTITCKASRDVAIAVAWYQQKPGKVPKLLIYWASTRHTGVPSRFSGSGSRTDFTLTISSLQPEDVADYFCHQYSSYPFTFGSGTKLEIKGGGSGGGGQVQLVQSGAEVKKPGASVKVSCKASGYSFSTFFIHWVRQRPGQGLEWIGRIDPNSGATKYNEKFESKVTLTRDTSISTAYMELSRLRSDDTAVYYCARGEDLLIRTDALDYWGQGTSVTVSSLGGGSGASTKGPSVFPLAPCSRSTSESTAALGCLVKDYFPEPVTVSWNSGALTSGVHTFPAVLQSSGLYSLSSVVTVPSSSLGTKTYTCNVDHKPSNTKVDKRVESKYGPPCPPCPAPEFLGGPSVFLFPPKPKDTLYITREPEVTCVVVDVSQEDPEVQFNWYVDGVEVHNAKTKPREEQFNSTYRVVSVLTVLHQDWLNGKEYKCKVSNKGLPSSIEKTISKAKGQPREPQVYTLPPSQEEMTKNQVSLTCLVKGFYPSDIAVEWESNGQPENNYKTTPPVLDSDGSFFLYSRLTVDKSRWQEGNVFSCSVMHEALHNHYTQKSLSLSLG chain 2: DIQMTQSPSSLSASVGDRVSITCKASQNAGIDVAWFQQKPGKAPKLLIYSKSNRYTGVPSRFSGSGSGTDFTLTISSLQPEDFADYYCLQYRSYPRTFGGGTKLEIKGGGSGGGGQVQLVQSGAEVKKPGSSVKVSCKASGYTFTDQTIHWMRQAPGQGLEWIGYIYPRDDSPKYNENFKGKVTITADKSTSTAYMELSSLRSEDTAVYYCAIPDRSGYAWFIYWGQGTLVTVSSLGGGSGRTVAAPSVFIFPPSDEQLKSGTASVVCLLNNFYPREAKVQWKVDNALQSGNSQESVTEQDSKDSTYSLSSTLTLSKADYEKHKVYACEVTHQGLSSPVTKSFNRGEC	0.034	0.172	0.104	0.938	0.118	0.248	0.163	0.436	–	0.004	0.012	1.7	1.3	0.128	3.09	0.105	1.7	0.097	1.55	< 0.015	Kd (cynomolgus BAFF): < 0.015 nM; Kd [13]: < 0.015 nM; Kd (human BAFF [14]): < 0.015 nM
